Here are results for 6 molecules from patent publication US12679878B2, “CRF2 receptor agonists and their use in therapy” (SANOFI, priority 2020, dated 2026).

For the assay, the target named is T1, CRF1R receptor (anti-target) (UniProt P34998 24-415, limits assumed).
T1 sequence (looked up): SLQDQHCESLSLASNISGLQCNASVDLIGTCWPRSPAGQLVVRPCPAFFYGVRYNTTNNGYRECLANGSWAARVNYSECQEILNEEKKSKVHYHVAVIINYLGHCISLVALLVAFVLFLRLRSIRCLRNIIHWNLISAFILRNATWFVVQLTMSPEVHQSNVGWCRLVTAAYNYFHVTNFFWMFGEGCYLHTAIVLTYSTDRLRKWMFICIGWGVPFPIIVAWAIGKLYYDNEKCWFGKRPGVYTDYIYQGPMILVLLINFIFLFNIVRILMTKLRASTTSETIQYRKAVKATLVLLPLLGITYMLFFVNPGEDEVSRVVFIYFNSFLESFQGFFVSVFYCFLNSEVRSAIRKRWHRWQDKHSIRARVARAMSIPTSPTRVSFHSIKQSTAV
The experiment in a line: cell-based or functional assay.

Starred links: 1 amine or outer side, 2 acyl side, 3 side chain; linkers in the order of their positions; H or OH if unused. Non-standard residues stand in square brackets, D forms with d. Groups on a side chain read outwards from the residue. No end group written: not given here. *: point of attachment. C18 diacid = O=C(O)CCCCCCCCCCCCCCCCC(=O)*; γGlu = O=C(O)[C@H](CCC(=O)[*:2])N[*:1]; Palmitoyl = CCCCCCCCCCCCCCCC(=O)*; AEEA = NCCOCCOCC(=O)O; Aib = CC(C)(N)C(=O)O

B1: peptide of SEQ ID NO: 28 (peptide)
peptide: IVLSLD[dV]PTKLK([γGlu-Palmitoyl])KKLLKQERKRKEREKAEKAARILERV-NH2
modifications: N-terminus assumed
SMILES: CCCCCCCCCCCCCCCC(=O)N[C@@H](CCC(=O)NCCCC[C@H](NC(=O)[C@H](CC(C)C)NC(=O)[C@H](CCCCN)NC(=O)[C@@H](NC(=O)[C@@H]1CCCN1C(=O)[C@H](NC(=O)[C@H](CC(=O)O)NC(=O)[C@H](CC(C)C)NC(=O)[C@H](CO)NC(=O)[C@H](CC(C)C)NC(=O)[C@@H](NC(=O)[C@@H](N)[C@@H](C)CC)C(C)C)C(C)C)[C@@H](C)O)C(=O)N[C@@H](CCCCN)C(=O)N[C@@H](CCCCN)C(=O)N[C@@H](CC(C)C)C(=O)N[C@@H](CC(C)C)C(=O)N[C@@H](CCCCN)C(=O)N[C@@H](CCC(N)=O)C(=O)N[C@@H](CCC(=O)O)C(=O)N[C@@H](CCCNC(=N)N)C(=O)N[C@@H](CCCCN)C(=O)N[C@@H](CCCNC(=N)N)C(=O)N[C@@H](CCCCN)C(=O)N[C@@H](CCC(=O)O)C(=O)N[C@@H](CCCNC(=N)N)C(=O)N[C@@H](CCC(=O)O)C(=O)N[C@@H](CCCCN)C(=O)N[C@@H](C)C(=O)N[C@@H](CCC(=O)O)C(=O)N[C@@H](CCCCN)C(=O)N[C@@H](C)C(=O)N[C@@H](C)C(=O)N[C@@H](CCCNC(=N)N)C(=O)N[C@H](C(=O)N[C@@H](CC(C)C)C(=O)N[C@@H](CCC(=O)O)C(=O)N[C@@H](CCCNC(=N)N)C(=O)N[C@H](C(N)=O)C(C)C)[C@@H](C)CC)C(=O)O
For B1, the “EC50 [nM] 0% HSA (cAMP, HTRF)” value was greater than 100 nM and the “Emax (%) (100% = Sauvagine at 100 nM)” value is 8.4%.

B2: peptide of SEQ ID NO: 29 (peptide)
peptide: IVLSLD[dV]PTKLK([γGlu-Palmitoyl])KKLLKQERKRKERE[Aib]AEKAARILERV-NH2
modifications: N-terminus assumed
SMILES: CCCCCCCCCCCCCCCC(=O)N[C@@H](CCC(=O)NCCCC[C@H](NC(=O)[C@H](CC(C)C)NC(=O)[C@H](CCCCN)NC(=O)[C@@H](NC(=O)[C@@H]1CCCN1C(=O)[C@H](NC(=O)[C@H](CC(=O)O)NC(=O)[C@H](CC(C)C)NC(=O)[C@H](CO)NC(=O)[C@H](CC(C)C)NC(=O)[C@@H](NC(=O)[C@@H](N)[C@@H](C)CC)C(C)C)C(C)C)[C@@H](C)O)C(=O)N[C@@H](CCCCN)C(=O)N[C@@H](CCCCN)C(=O)N[C@@H](CC(C)C)C(=O)N[C@@H](CC(C)C)C(=O)N[C@@H](CCCCN)C(=O)N[C@@H](CCC(N)=O)C(=O)N[C@@H](CCC(=O)O)C(=O)N[C@@H](CCCNC(=N)N)C(=O)N[C@@H](CCCCN)C(=O)N[C@@H](CCCNC(=N)N)C(=O)N[C@@H](CCCCN)C(=O)N[C@@H](CCC(=O)O)C(=O)N[C@@H](CCCNC(=N)N)C(=O)N[C@@H](CCC(=O)O)C(=O)NC(C)(C)C(=O)N[C@@H](C)C(=O)N[C@@H](CCC(=O)O)C(=O)N[C@@H](CCCCN)C(=O)N[C@@H](C)C(=O)N[C@@H](C)C(=O)N[C@@H](CCCNC(=N)N)C(=O)N[C@H](C(=O)N[C@@H](CC(C)C)C(=O)N[C@@H](CCC(=O)O)C(=O)N[C@@H](CCCNC(=N)N)C(=O)N[C@H](C(N)=O)C(C)C)[C@@H](C)CC)C(=O)O
For the molecule B2, the “EC50 [nM] 0% HSA (cAMP, HTRF)” value was greater than 100 nM and the “Emax (%) (100% = Sauvagine at 100 nM)” value came out at 18.4%.

B3: peptide of SEQ ID NO: 89 (peptide)
peptide: IVLSLDVPIKLK([AEEA-AEEA-γGlu-C18 diacid])QILLKQERQKKQREQAKTN[Aib]QILAQV-NH2
modifications: N-terminus assumed
SMILES: CC[C@H](C)[C@H](N)C(=O)N[C@H](C(=O)N[C@@H](CC(C)C)C(=O)N[C@@H](CO)C(=O)N[C@@H](CC(C)C)C(=O)N[C@@H](CC(=O)O)C(=O)N[C@H](C(=O)N1CCC[C@H]1C(=O)N[C@H](C(=O)N[C@@H](CCCCN)C(=O)N[C@@H](CC(C)C)C(=O)N[C@@H](CCCCNC(=O)COCCOCCNC(=O)COCCOCCNC(=O)CC[C@H](NC(=O)CCCCCCCCCCCCCCCCC(=O)O)C(=O)O)C(=O)N[C@@H](CCC(N)=O)C(=O)N[C@H](C(=O)N[C@@H](CC(C)C)C(=O)N[C@@H](CC(C)C)C(=O)N[C@@H](CCCCN)C(=O)N[C@@H](CCC(N)=O)C(=O)N[C@@H](CCC(=O)O)C(=O)N[C@@H](CCCNC(=N)N)C(=O)N[C@@H](CCC(N)=O)C(=O)N[C@@H](CCCCN)C(=O)N[C@@H](CCCCN)C(=O)N[C@@H](CCC(N)=O)C(=O)N[C@@H](CCCNC(=N)N)C(=O)N[C@@H](CCC(=O)O)C(=O)N[C@@H](CCC(N)=O)C(=O)N[C@@H](C)C(=O)N[C@@H](CCCCN)C(=O)N[C@H](C(=O)N[C@@H](CC(N)=O)C(=O)NC(C)(C)C(=O)N[C@@H](CCC(N)=O)C(=O)N[C@H](C(=O)N[C@@H](CC(C)C)C(=O)N[C@@H](C)C(=O)N[C@@H](CCC(N)=O)C(=O)N[C@H](C(N)=O)C(C)C)[C@@H](C)CC)[C@@H](C)O)[C@@H](C)CC)[C@@H](C)CC)C(C)C)C(C)C
For the molecule B3, the “EC50 [nM] 0% HSA (cAMP, HTRF)” value was greater than 100 nM and the “Emax (%) (100% = Sauvagine at 100 nM)” value was 3.7%.

B4: peptide of SEQ ID NO: 27 (peptide)
peptide: IVLSLD[dV]PTKLK([γGlu-Palmitoyl])KKLLKQERKRKEREQAEKNARILERV-NH2
modifications: N-terminus assumed
SMILES: CCCCCCCCCCCCCCCC(=O)N[C@@H](CCC(=O)NCCCC[C@H](NC(=O)[C@H](CC(C)C)NC(=O)[C@H](CCCCN)NC(=O)[C@@H](NC(=O)[C@@H]1CCCN1C(=O)[C@H](NC(=O)[C@H](CC(=O)O)NC(=O)[C@H](CC(C)C)NC(=O)[C@H](CO)NC(=O)[C@H](CC(C)C)NC(=O)[C@@H](NC(=O)[C@@H](N)[C@@H](C)CC)C(C)C)C(C)C)[C@@H](C)O)C(=O)N[C@@H](CCCCN)C(=O)N[C@@H](CCCCN)C(=O)N[C@@H](CC(C)C)C(=O)N[C@@H](CC(C)C)C(=O)N[C@@H](CCCCN)C(=O)N[C@@H](CCC(N)=O)C(=O)N[C@@H](CCC(=O)O)C(=O)N[C@@H](CCCNC(=N)N)C(=O)N[C@@H](CCCCN)C(=O)N[C@@H](CCCNC(=N)N)C(=O)N[C@@H](CCCCN)C(=O)N[C@@H](CCC(=O)O)C(=O)N[C@@H](CCCNC(=N)N)C(=O)N[C@@H](CCC(=O)O)C(=O)N[C@@H](CCC(N)=O)C(=O)N[C@@H](C)C(=O)N[C@@H](CCC(=O)O)C(=O)N[C@@H](CCCCN)C(=O)N[C@@H](CC(N)=O)C(=O)N[C@@H](C)C(=O)N[C@@H](CCCNC(=N)N)C(=O)N[C@H](C(=O)N[C@@H](CC(C)C)C(=O)N[C@@H](CCC(=O)O)C(=O)N[C@@H](CCCNC(=N)N)C(=O)N[C@H](C(N)=O)C(C)C)[C@@H](C)CC)C(=O)O
As for B4, the “EC50 [nM] 0% HSA (cAMP, HTRF)” value is greater than 100 nM and the “Emax (%) (100% = Sauvagine at 100 nM)” value turned out to be 34.2%.

B5: peptide of SEQ ID NO: 30 (peptide)
peptide: IVLSLD[dV]PTKLK([γGlu-Palmitoyl])KKLLKQERKRKEREQAEKAARILERV-NH2
modifications: N-terminus assumed
SMILES: CCCCCCCCCCCCCCCC(=O)N[C@@H](CCC(=O)NCCCC[C@H](NC(=O)[C@H](CC(C)C)NC(=O)[C@H](CCCCN)NC(=O)[C@@H](NC(=O)[C@@H]1CCCN1C(=O)[C@H](NC(=O)[C@H](CC(=O)O)NC(=O)[C@H](CC(C)C)NC(=O)[C@H](CO)NC(=O)[C@H](CC(C)C)NC(=O)[C@@H](NC(=O)[C@@H](N)[C@@H](C)CC)C(C)C)C(C)C)[C@@H](C)O)C(=O)N[C@@H](CCCCN)C(=O)N[C@@H](CCCCN)C(=O)N[C@@H](CC(C)C)C(=O)N[C@@H](CC(C)C)C(=O)N[C@@H](CCCCN)C(=O)N[C@@H](CCC(N)=O)C(=O)N[C@@H](CCC(=O)O)C(=O)N[C@@H](CCCNC(=N)N)C(=O)N[C@@H](CCCCN)C(=O)N[C@@H](CCCNC(=N)N)C(=O)N[C@@H](CCCCN)C(=O)N[C@@H](CCC(=O)O)C(=O)N[C@@H](CCCNC(=N)N)C(=O)N[C@@H](CCC(=O)O)C(=O)N[C@@H](CCC(N)=O)C(=O)N[C@@H](C)C(=O)N[C@@H](CCC(=O)O)C(=O)N[C@@H](CCCCN)C(=O)N[C@@H](C)C(=O)N[C@@H](C)C(=O)N[C@@H](CCCNC(=N)N)C(=O)N[C@H](C(=O)N[C@@H](CC(C)C)C(=O)N[C@@H](CCC(=O)O)C(=O)N[C@@H](CCCNC(=N)N)C(=O)N[C@H](C(N)=O)C(C)C)[C@@H](C)CC)C(=O)O
Turning to B5, the “EC50 [nM] 0% HSA (cAMP, HTRF)” value is greater than 100 nM and the “Emax (%) (100% = Sauvagine at 100 nM)” value is 14.5%.

B6: peptide of SEQ ID NO: 88 (peptide)
peptide: IVLSLDVPIKLK([AEEA-AEEA-γGlu-C18 diacid])QILLKQERQKKQREKAKTN[Aib]QILAQV-NH2
modifications: N-terminus assumed
SMILES: CC[C@H](C)[C@H](N)C(=O)N[C@H](C(=O)N[C@@H](CC(C)C)C(=O)N[C@@H](CO)C(=O)N[C@@H](CC(C)C)C(=O)N[C@@H](CC(=O)O)C(=O)N[C@H](C(=O)N1CCC[C@H]1C(=O)N[C@H](C(=O)N[C@@H](CCCCN)C(=O)N[C@@H](CC(C)C)C(=O)N[C@@H](CCCCNC(=O)COCCOCCNC(=O)COCCOCCNC(=O)CC[C@H](NC(=O)CCCCCCCCCCCCCCCCC(=O)O)C(=O)O)C(=O)N[C@@H](CCC(N)=O)C(=O)N[C@H](C(=O)N[C@@H](CC(C)C)C(=O)N[C@@H](CC(C)C)C(=O)N[C@@H](CCCCN)C(=O)N[C@@H](CCC(N)=O)C(=O)N[C@@H](CCC(=O)O)C(=O)N[C@@H](CCCNC(=N)N)C(=O)N[C@@H](CCC(N)=O)C(=O)N[C@@H](CCCCN)C(=O)N[C@@H](CCCCN)C(=O)N[C@@H](CCC(N)=O)C(=O)N[C@@H](CCCNC(=N)N)C(=O)N[C@@H](CCC(=O)O)C(=O)N[C@@H](CCCCN)C(=O)N[C@@H](C)C(=O)N[C@@H](CCCCN)C(=O)N[C@H](C(=O)N[C@@H](CC(N)=O)C(=O)NC(C)(C)C(=O)N[C@@H](CCC(N)=O)C(=O)N[C@H](C(=O)N[C@@H](CC(C)C)C(=O)N[C@@H](C)C(=O)N[C@@H](CCC(N)=O)C(=O)N[C@H](C(N)=O)C(C)C)[C@@H](C)CC)[C@@H](C)O)[C@@H](C)CC)[C@@H](C)CC)C(C)C)C(C)C
In the case of B6, the “EC50 [nM] 0% HSA (cAMP, HTRF)” value was greater than 100 nM and the “Emax (%) (100% = Sauvagine at 100 nM)” value worked out at 2.3%.
